From the supplement of paper PMC12042874
± gives the uncertainty stated by the source.

Experiment: amyloid nucleation score (Sup35N fusion, yeast selection) (log enrichment); library NNK3; higher = more nucleation; inactive = no reads after selection
Method in brief: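 Yeast lacking psi expressed peptides of 20 random codons fused to Sup35N, received 100 μM copper sulfate for 24 hours, and were then grown for 7 days at 30°C on medium lacking adenine and uracil. Illumina sequencing of input and output plasmid inserts provided the reads. Nucleation scores are DiMSum log enrichments of output over input, centred on the mode of non-aggregating sequences. Any sequence with under 100 input reads was excluded.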

NLRSISF
amyloid nucleation score: inactive

NLSLFWMWELGKFYHGDRTA
amyloid nucleation score: 2.23 ± 0.066

NLVCQLLGRQRDPINPVVCW
amyloid nucleation score: inactive

NLVSQK
amyloid nucleation score: inactive

NMFRARGCSDFFLACMNDSA
amyloid nucleation score: inactive

NMFVILRFVMHKIKMFNRF
amyloid nucleation score: 1.51 ± 0.079

NMNCCLKMSVYLYRLLVHM
amyloid nucleation score: inactive

NMNSWAMQWTICTHSTFVLS
amyloid nucleation score: inactive

NMYSISTLHRKLADPVCSV
amyloid nucleation score: inactive

NNAVQLYFYRLDMSYA
amyloid nucleation score: inactive

NNFMYPELAPSARRCAWYCG
amyloid nucleation score: inactive

NNPLLIRDLHLTKVDISAVC
amyloid nucleation score: inactive

NNSAM
amyloid nucleation score: -0.178 ± 1.1

NNSTRLIWWCMVKMRYNHCE
amyloid nucleation score: inactive

NNVFERQFRHLNSVDGPIDN
amyloid nucleation score: inactive

NPIRGYLMYSPALSPLVG
amyloid nucleation score: inactive

NPRNMTPSLVFTDWLS
amyloid nucleation score: inactive

NPVRSKWYKVCCDNVGVYMD
amyloid nucleation score: inactive

NQWLCLHLCQR
amyloid nucleation score: inactive

NQYLLCMLMWNARSGSRSMI
amyloid nucleation score: inactive

NRAGGICDKIRAQGYSYHSM
amyloid nucleation score: 0.475 ± 0.72

NRAVHKSRWHRMRTFKDERR
amyloid nucleation score: inactive

NRCTCAV
amyloid nucleation score: inactive

NRENFMVTLLSLWTCNTCQV
amyloid nucleation score: 2.46 ± 0.054

NREQLSSNKRNFASHRWTSV
amyloid nucleation score: inactive

NRFWLLCDFLFVHTCV
amyloid nucleation score: 0.897 ± 0.2

NRGFYQ
amyloid nucleation score: inactive

NRGSYVFMNRSEPVCSWISK
amyloid nucleation score: 1.09 ± 0.1

NRMQVMLSVVRSSLFVWMQW
amyloid nucleation score: inactive

NRNYVGPWTLKMGLVC
amyloid nucleation score: inactive

NRPTAVSFCK
amyloid nucleation score: inactive

NRSIIVIWWNSRSSSNSWVG
amyloid nucleation score: 2.1 ± 0.072

NRTCNDLMTFYSWGSSR
amyloid nucleation score: inactive

NRTDHTLNCVEIFAWIWFNL
amyloid nucleation score: inactive

NRTMLFEEKYVG
amyloid nucleation score: inactive

NRTSLCKEDLVRVSFDGYLL
amyloid nucleation score: inactive

NRVAYTAQCQIIFCVGGYCL
amyloid nucleation score: 2.72 ± 0.069

NRVMSVLF
amyloid nucleation score: inactive

NRVSFPRGSKFCTFL
amyloid nucleation score: inactive

NRYRTYVCLKDKRRSFKSGM
amyloid nucleation score: inactive

NSDNHYFQRTMTNFANGKGC
amyloid nucleation score: inactive

NSDVYVSFLSVCVFAVRCLL
amyloid nucleation score: inactive

NSFIVVIYYRVRSYRYTD
amyloid nucleation score: inactive

NSGAWLSMEMMPCRMSVYAC
amyloid nucleation score: inactive

NSGGFSKDDGNGYKA
amyloid nucleation score: inactive

NSHLSKNGQWIPLSAPATTT
amyloid nucleation score: inactive

NSNFFL
amyloid nucleation score: inactive

NSNLDSSVYSVILYGLGVWM
amyloid nucleation score: 1.18 ± 0.094

NSVGFACKEFMHVTAQTHKM
amyloid nucleation score: inactive

NSYFGMWVITGFFLASMCIR
amyloid nucleation score: inactive

NTDVVCMLNWLLTW
amyloid nucleation score: inactive

NTFTPVFLTSKYSMRYGLIM
amyloid nucleation score: inactive

NTGLNFCRASLSWTLGLYSS
amyloid nucleation score: inactive

NTGVENGREVDYARGANRSP
amyloid nucleation score: inactive

NTRMDNLTNAWRAQYALSP
amyloid nucleation score: inactive

NTVLATYRTNAVFGKTTHYN
amyloid nucleation score: inactive

NTWPTPSLWLVLNKTLRKTS
amyloid nucleation score: inactive

NTYVIVPWKLLTNFDEFPHR
amyloid nucleation score: inactive

NVASM
amyloid nucleation score: inactive

NVGTS
amyloid nucleation score: inactive

NVIMVFVLCCFWCEGTQKHV
amyloid nucleation score: 1.83 ± 0.056

NVIRGGQGLVGPAIMFRDGV
amyloid nucleation score: inactive

NVLYLQLRPMNLCEANSEIG
amyloid nucleation score: inactive

NVMIDDVLARYYRVRRGLVG
amyloid nucleation score: inactive

NVNEQSHPM
amyloid nucleation score: inactive

NVYIVFFNFKTQ
amyloid nucleation score: 2.34 ± 0.058

NVYMRSYKIRSCMTFRTLAL
amyloid nucleation score: inactive

NWDWADE
amyloid nucleation score: inactive

NWIYYTMWSL
amyloid nucleation score: 0.581 ± 0.17

NWLDWLGRPPRDIGAWNGSS
amyloid nucleation score: inactive

NWNIGPRKLCKWRCR
amyloid nucleation score: inactive

NWTQSIFVGGQRDRLVISRT
amyloid nucleation score: inactive

NWYDSWRVFAQNKDCSLWA
amyloid nucleation score: inactive

NYEQCNSHSCMIFLFRTDYS
amyloid nucleation score: inactive

NYFYRPYSEDSVITQMIVVV
amyloid nucleation score: inactive

NYGFGRVSAFYHQLA
amyloid nucleation score: inactive

NYGNPRRMVCSEYGWESLCK
amyloid nucleation score: inactive

NYKRTLEESN
amyloid nucleation score: 1.17 ± 0.18

NYTVLYGNSLSFFRSHLCRV
amyloid nucleation score: inactive

NYVCGVIAVNVVMNSSNNWR
amyloid nucleation score: 2.66 ± 0.051

NYVVSFYISSNFWYDVVNCD
amyloid nucleation score: 0.294 ± 0.22

NYYINKSMVRSRWFCCLPLW
amyloid nucleation score: 2.34 ± 0.067

PAADHLAKRCSMICSSSFAL
amyloid nucleation score: inactive

PAGTICGCRHGRLWNGPSRW
amyloid nucleation score: inactive

PALMDLGYRYVSRNFDL
amyloid nucleation score: inactive

PAPHRIKRIL
amyloid nucleation score: inactive

PCFLTNEDFYMKFTRN
amyloid nucleation score: inactive

PCHHFFFA
amyloid nucleation score: inactive

PCLYLGIFARTKMHPTNDCM
amyloid nucleation score: -0.88 ± 1.1

PCPFILFYSEFTWSRY
amyloid nucleation score: inactive

PDDCVGRSD
amyloid nucleation score: inactive

PDFNLWRTEMLSYNGWK
amyloid nucleation score: inactive

PDHEMGSHLLV
amyloid nucleation score: inactive

PDHSHHCV
amyloid nucleation score: inactive

PDKWSPGAYVKWWVGTKVQM
amyloid nucleation score: inactive

PDRCFD
amyloid nucleation score: inactive

PENDRNMLLVSVIVPRYIAT
amyloid nucleation score: inactive

PETMCLGAKRFITGRETREL
amyloid nucleation score: 0.588 ± 0.14

PFACAVAKNPHES
amyloid nucleation score: inactive

PFCVCRLL
amyloid nucleation score: inactive

PFENHSYVCSGSRYNGTLWE
amyloid nucleation score: inactive

PFFDFSDINITEPE
amyloid nucleation score: -0.306 ± 0.71

PFGGRR
amyloid nucleation score: 0.013 ± 0.47

PFGWSVLGTGASGAEIQLVE
amyloid nucleation score: inactive

PFHRIPISVSLGYAFGTRCS
amyloid nucleation score: inactive

PFLTTKIVQVAGDLVNMFYE
amyloid nucleation score: 1.24 ± 0.16

PFSSGQSVEYL
amyloid nucleation score: inactive

PFSYDLRNFNSWQIGNGGLM
amyloid nucleation score: inactive

PFTTSYPDVQLTMKFNSWRN
amyloid nucleation score: 1.56 ± 0.13

PFVSVSVCTSLKGCSR
amyloid nucleation score: 1.8 ± 0.1

PGHFLECRKW
amyloid nucleation score: -0.096 ± 0.66

PGMISSQGSYTFRAWAVSLR
amyloid nucleation score: inactive

PGRMRVVTVMKMWLTALSLK
amyloid nucleation score: inactive

PGSASYSLVRGQDYYLTIYC
amyloid nucleation score: inactive

PGSDWDMLIMKGMKKRYLDY
amyloid nucleation score: inactive

PGSYGHGGWNTEFGCQVAIW
amyloid nucleation score: -0.593 ± 1.9

PGTIYVGCRLLIYGTNTADL
amyloid nucleation score: inactive

PHCVWDFLVRYGMDENRVKY
amyloid nucleation score: inactive

PHHSRYAFYGNPTLAI
amyloid nucleation score: inactive

PIAHFM
amyloid nucleation score: inactive

PIMAWIWWRASDPMQKRLVG
amyloid nucleation score: inactive

PINETRSEESLVGSRGM
amyloid nucleation score: inactive

PITDFTSNISNSRDPLQVRG
amyloid nucleation score: inactive

PKCPCTWSRTYCVVLWLPRR
amyloid nucleation score: inactive

PKLSRSYVLSMMVTWRNSKV
amyloid nucleation score: inactive

PLAFWTCCYCLTWNLRLSWQ
amyloid nucleation score: 1.6 ± 0.059

PLHSWKQCALRRVSSNTSSG
amyloid nucleation score: 1.75 ± 0.093

PLKGDTVSYCGV
amyloid nucleation score: inactive

PLKTLFCSVLSCVIFLYLLM
amyloid nucleation score: inactive

PLNMSRCTLALTLFVISFGW
amyloid nucleation score: inactive

PLVDPLGELYAATFCSGEYC
amyloid nucleation score: inactive

PLWAYKYVPGFYRVFKVCLM
amyloid nucleation score: inactive

PLWSRCLYRLSAGGACSVWK
amyloid nucleation score: inactive

PMHAIIKLYM
amyloid nucleation score: inactive

PNRVGAVPGG
amyloid nucleation score: inactive

PPCWLYDFVTNVNNWWYEHC
amyloid nucleation score: inactive

PPGLGYSMVFYSSVDMHMLS
amyloid nucleation score: inactive

PPRSSLFTFNIFKYNNLYNA
amyloid nucleation score: 2.72 ± 0.066

PQADLVRFAMCRRAMNLVPW
amyloid nucleation score: inactive

PQLCESLELSEKRRTEDLVG
amyloid nucleation score: inactive

PQLLVSYYL
amyloid nucleation score: inactive

PQRWLSPSYSRIVRM
amyloid nucleation score: 1.39 ± 0.14

PRAMLPDWSSALVWWLN
amyloid nucleation score: inactive

PRGIDG
amyloid nucleation score: inactive

PRHWFREFMGMVMI
amyloid nucleation score: 0.317 ± 0.51

PRIFLSR
amyloid nucleation score: inactive

PRLHRECNEGEVGL
amyloid nucleation score: 0.206 ± 0.81

PRLRHVICHGRFWNPMIQVG
amyloid nucleation score: 0.971 ± 0.19

PRLSAFVLRNYLRPKGYGGA
amyloid nucleation score: inactive

PRRTNKVARGGRHARVRKVE
amyloid nucleation score: inactive

PRVIHWSLALNSSHCNFVFF
amyloid nucleation score: 2.67 ± 0.073

PSCMSDCISIIYS
amyloid nucleation score: inactive

PSFGDEDTYNRDLALTLMDC
amyloid nucleation score: inactive

PSPLDSRLEHYRMDSTCRVV
amyloid nucleation score: inactive

PSSSYPKSLRINMAFSFLMC
amyloid nucleation score: 0.49 ± 0.53

PSTVTFRWFIVVSPLRHWFA
amyloid nucleation score: inactive

PSVWFFSTETFMVRCPADC
amyloid nucleation score: 0.549 ± 0.33

PSYLKTFRDVLMTVSMYFVC
amyloid nucleation score: inactive
